Data on 2 molecules can be found in paper PMC6237815, “Structural insights into DNA degradation by human mitochondrial nuclease MGME1”.

The target in data set [1] is T1, HsMGME1 WT (Homo sapiens, UniProt Q9BQP7 21-344).
T1 sequence: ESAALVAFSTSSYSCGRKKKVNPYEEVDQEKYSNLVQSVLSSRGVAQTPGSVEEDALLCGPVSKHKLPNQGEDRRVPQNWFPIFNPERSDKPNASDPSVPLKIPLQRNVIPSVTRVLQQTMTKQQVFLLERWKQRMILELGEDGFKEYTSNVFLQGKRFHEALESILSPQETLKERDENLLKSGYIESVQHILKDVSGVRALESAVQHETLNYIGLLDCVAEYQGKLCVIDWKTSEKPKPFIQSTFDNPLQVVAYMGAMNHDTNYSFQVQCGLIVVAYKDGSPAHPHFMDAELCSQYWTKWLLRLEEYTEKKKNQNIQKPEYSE
Description: crystal structure (Se-SAD and native); three of four molecules contact only the 3' overhang, one contacts duplex and overhang; No solution binding assay; crystals at 18 C, protein 10 mg/ml in 20 mM Tris pH 8.0, 200 mM NaCl, 1 mM DTT, protein:DNA 1:1.2; DNA2: phosphate-citrate pH 4.2, 20% PEG300; H180Q-DNA2-Ca2+: 0.1 M CHES pH 9.5, 20% PEG 8000; DNA3: 0.1 M HEPES pH 7.5, 0.8 M NaH2PO4, 0.8 M K2HPO4. To be noted: protein: recombinant; tags: none expected (His-SUMO removed by Ulp1); self-complementary 6-bp duplex GGATCC, 3' overhang 12 nt on both strands; 2 copies of the strand.

Data set [2] deals with T1, HsMGME1 WT. The experiment in a line: crystal structure (1.75 A); CaCl2 in the sample (10 mM), but no Ca2+ bound at the active site; No solution binding assay; crystals at 18 C, protein 10 mg/ml in 20 mM Tris pH 8.0, 200 mM NaCl, 1 mM DTT, protein:DNA 1:1.2; DNA2: phosphate-citrate pH 4.2, 20% PEG300; H180Q-DNA2-Ca2+: 0.1 M CHES pH 9.5, 20% PEG 8000; DNA3: 0.1 M HEPES pH 7.5, 0.8 M NaH2PO4, 0.8 M K2HPO4. To be noted: protein: recombinant; tags: none expected (His-SUMO removed by Ulp1); single strand.

Another data set addresses T2, HsMGME1 H180Q (Homo sapiens, UniProt Q9BQP7 21-344, H180Q).
T2 sequence: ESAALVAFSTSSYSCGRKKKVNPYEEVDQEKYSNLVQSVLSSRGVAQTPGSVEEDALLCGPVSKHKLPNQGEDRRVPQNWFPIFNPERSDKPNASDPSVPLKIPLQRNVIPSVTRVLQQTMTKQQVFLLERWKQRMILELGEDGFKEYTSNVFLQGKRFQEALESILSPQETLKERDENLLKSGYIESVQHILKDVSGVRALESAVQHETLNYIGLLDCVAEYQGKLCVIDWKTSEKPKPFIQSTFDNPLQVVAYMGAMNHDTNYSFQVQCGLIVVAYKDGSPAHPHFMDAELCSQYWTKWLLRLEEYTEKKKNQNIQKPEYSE
The experiment in a line: crystal structure; one Ca2+ at A-site; acetate; 30 mM CaCl2 in sample; No solution binding assay; crystals at 18 C, protein 10 mg/ml in 20 mM Tris pH 8.0, 200 mM NaCl, 1 mM DTT, protein:DNA 1:1.2; DNA2: phosphate-citrate pH 4.2, 20% PEG300; H180Q-DNA2-Ca2+: 0.1 M CHES pH 9.5, 20% PEG 8000; DNA3: 0.1 M HEPES pH 7.5, 0.8 M NaH2PO4, 0.8 M K2HPO4. To be noted: protein: recombinant; tags: none expected (His-SUMO removed by Ulp1); single strand.

B1: DNA3 (mixed)
DNA 1: GGATCCTTCTTCTTCTTC
DNA 2: GGATCCTTCTTCTTCTTC
With B1, in the data set with HsMGME1 WT [1], the binding result is “binds”. For AACAACAACAAC (ssDNA) [ssDNA2], the binding result in the data set with HsMGME1 WT [2] and with HsMGME1 H180Q was “binds” in each case.
